Measurements as given in patent US20240115603A1 (Zymeworks, published 2024).

B1: WT G-CSF, purified, tag cleaved (ligand)
chain: TPLGPASSLPQSFLLKCLEQVRKIQGDGAALQEKLCATYKLCHPEELVLLGHSLGIPWAPLSSCPSQALQLAGCLSQLHSGLFLYQGLLQALEGISPELGPTLDTLQLDVADFATTIWQQMEELGMAPALQPTQGAMPAFASAFQRRAGGVLVASHLQSFLEVSYRVLRHLAQAAAENLYFQ
notes: also called G-CSFWT
B3: WT G-CSFR(Ig-CRH), purified, tag cleaved (receptor)
chain: GSMGCGHISVSAPIVHLGDPITASCIIKQNCSHLDPEPQILWRLGAELQPGGRQQRLSDGTQESIITLPHLNHTQAFLSCSLNWGNSLQILDQVELRAGYPPAIPHNLSCLMNLTTSSLICQWEPGPETHLPTSFTLKSFKSRGNCQTQGDSILDCVPKDGQSHCSIPRKHLLLYQNMGIWVQAENALGTSMSPQLCLDPMDVVKLEPPMLRTMDPSPEAAPPQAGCLQLSWEPWQPGLHINQKCELRHKPQRGEASWALVGPLPLEALQYELCGLLPATAYTLQIRCIRWPLPGHWSDWSPSLELRTTE
notes: also called G-CSFRWT; wild type G-CSFR ECD

Assays:
[1] = target: T1, G-CSFR(Ig-CRH)E design 9, purified, tag cleaved (human, UniProt Q99062 26-331); assay: SPR (Biacore T200), WT G-CSF vs design receptor; steady-state derived KD relative to steady-state WT:WT KD (larger = weaker)
T1 construct: SPR protein; also called Design 9 G-CSFR(Ig-CRH)E
T1 chain: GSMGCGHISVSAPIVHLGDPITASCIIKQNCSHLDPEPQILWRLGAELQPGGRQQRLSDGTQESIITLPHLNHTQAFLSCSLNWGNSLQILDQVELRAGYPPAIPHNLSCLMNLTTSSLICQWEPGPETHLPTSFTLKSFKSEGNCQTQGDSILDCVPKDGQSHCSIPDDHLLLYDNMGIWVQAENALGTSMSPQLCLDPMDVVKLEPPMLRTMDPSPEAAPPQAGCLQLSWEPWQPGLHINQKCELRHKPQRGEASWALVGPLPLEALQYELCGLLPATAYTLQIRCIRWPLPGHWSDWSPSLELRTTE

[2] = target: T2, G-CSFR(Ig-CRH)E design 34, purified, tag cleaved (human, UniProt Q99062 26-331); assay: as above
T2 construct: SPR protein; also called Design 34 G-CSFR(Ig-CRH)E
T2 chain: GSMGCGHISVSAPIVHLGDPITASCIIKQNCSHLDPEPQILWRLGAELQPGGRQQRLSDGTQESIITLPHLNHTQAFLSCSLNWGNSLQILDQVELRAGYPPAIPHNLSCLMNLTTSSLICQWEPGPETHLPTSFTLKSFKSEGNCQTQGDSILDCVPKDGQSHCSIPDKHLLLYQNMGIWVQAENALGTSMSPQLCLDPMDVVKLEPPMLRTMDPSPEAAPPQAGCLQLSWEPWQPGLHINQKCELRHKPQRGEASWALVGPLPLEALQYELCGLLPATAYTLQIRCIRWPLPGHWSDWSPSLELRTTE

[3] = target: T3, G-CSFR(Ig-CRH)E design 35, purified, tag cleaved (human, UniProt Q99062 26-331); assay: SPR (Biacore T200), WT G-CSF vs design receptor; KD relative to WT:WT control (larger = weaker)
T3 construct: SPR protein; also called Design #35 G-CSFR(Ig-CRH)E
T3 chain: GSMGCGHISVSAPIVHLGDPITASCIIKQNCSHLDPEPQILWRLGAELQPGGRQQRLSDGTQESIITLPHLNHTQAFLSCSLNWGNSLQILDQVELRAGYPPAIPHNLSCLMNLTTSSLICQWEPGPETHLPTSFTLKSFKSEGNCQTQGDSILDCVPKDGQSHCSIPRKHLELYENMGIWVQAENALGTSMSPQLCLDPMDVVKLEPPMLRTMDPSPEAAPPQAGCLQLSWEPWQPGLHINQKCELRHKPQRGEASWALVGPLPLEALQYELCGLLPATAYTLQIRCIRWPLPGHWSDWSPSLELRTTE

[4] = target: T4, G-CSFR(Ig-CRH)E design 30, purified, tag cleaved (human, UniProt Q99062 26-331); assay: as above
T4 construct: also called Design 30 G-CSFR(Ig-CRH)E
T4 chain: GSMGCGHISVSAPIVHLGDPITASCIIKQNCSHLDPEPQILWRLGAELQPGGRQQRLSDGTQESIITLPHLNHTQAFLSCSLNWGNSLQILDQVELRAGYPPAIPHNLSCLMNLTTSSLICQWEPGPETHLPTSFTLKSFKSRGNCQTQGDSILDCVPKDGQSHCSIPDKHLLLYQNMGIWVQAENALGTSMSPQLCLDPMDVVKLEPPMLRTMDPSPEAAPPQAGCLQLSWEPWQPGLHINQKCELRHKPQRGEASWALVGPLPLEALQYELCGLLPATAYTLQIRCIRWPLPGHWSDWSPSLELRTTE

[5] = target: T1, G-CSFR(Ig-CRH)E design 9, purified, tag …; assay: SPR (Biacore T200)
[6] = target: T2, G-CSFR(Ig-CRH)E design 34, purified, …; assay: SPR (Biacore T200)
[7] = target: T4, G-CSFR(Ig-CRH)E design 30, purified, …; assay: SPR (Biacore T200)
[8] = target: B3; assay: SPR (Biacore T200), WT G-CSFR(Ig-CRH) amine-coupled
[9] = target: T5, G-CSFR(Ig-CRH)E design 307, purified, tag cleaved (human, UniProt Q99062 26-331); assay: SPR (Biacore T200), G-CSFR(Ig-CRH)E amine-coupled, G-CSFE injected; steady-state derived KD relative to steady-state WT:WT KD
T5 construct: SPR protein; also called Design 307 G-CSFR(Ig-CRH)E
T5 chain: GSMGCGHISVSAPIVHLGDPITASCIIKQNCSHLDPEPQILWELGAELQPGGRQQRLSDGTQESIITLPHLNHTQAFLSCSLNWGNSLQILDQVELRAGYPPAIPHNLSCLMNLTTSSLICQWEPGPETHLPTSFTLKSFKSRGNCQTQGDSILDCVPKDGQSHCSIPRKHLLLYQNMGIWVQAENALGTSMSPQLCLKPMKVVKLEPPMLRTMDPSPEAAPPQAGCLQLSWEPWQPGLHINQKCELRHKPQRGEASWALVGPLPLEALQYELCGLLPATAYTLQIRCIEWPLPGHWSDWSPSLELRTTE
Procedure: To determine binding affinity of G-CSFE to G-CSFRE the G-CSFRE mutant was captured by standard amine coupling as described by the manufacturer (GE LifeSciences). Briefly, immediately after EDC/NHS activation, a 5 μg/mL solution of G-CSFRE in 10 mM NaOAc, pH 5.0, was injected at a flow rate of 5 μL/min until a receptor density of ˜700-900 RU was reached. The remaining active groups were quenched by a 420 s injection of 1 M ethanolamine hydrochloride-NaOH pH 8.5 at 10 μL/min. Using single-cycle kinetics, six concentrations of a two-fold dilution series of the corresponding G-CSFE mutant starting at 200 nM with a blank buffer control were sequentially injected at 25 μL/min for 300s with a 1800s dissociation phase, resulting in a set of sensorgrams with a buffer blank reference. The same sample titration was also performed on a reference cell with no variants captured. The chip was regenerated to prepare for the next injection cycle by one pulse of 10 mM glycine/HCl, pH 2.0, for 30 s at 30 μL/min.
(§1) Double-referenced sensorgrams from duplicate or triplicate repeat injections were analyzed using Biacore™ T200 Evaluation Software v3.0 and fit to the 1:1 Langmuir binding model.
(§2) Kinetic-derived affinity constants (KD) where obtained by fitting the association and dissociation phases of the curves. […] For the cases in which the kinetic parameters could not be fit an attempt was made to derive a steady state affinity constant.

[10] = target: B1; assay: SPR (Biacore T200, 25 C), kinetic fit, 1:1 Langmuir; range over independent experiments; lower end of the range over the WT:WT runs
Procedure: The SPR binding assays were carried out on a Biacore T200 instrument (GE Healthcare, Mississauga, ON, Canada) with PBS-T (PBS+0.05% (v/v) Tween 20) running buffer at a temperature of 25° C. […] Designs were assessed in three different immobilization orientations.
as §1, §2

B1
KD fold change (vs WT:WT) [1]: 8810 fold
KD fold change (vs WT:WT) [2]: 4260 fold
KD fold change (vs WT:WT) [3]: 19 fold
KD fold change (vs WT:WT) [4]: 774 fold
fold weaker affinity (vs WT:WT) [5]: 700 fold
fold weaker affinity (vs WT:WT) [6]: 700 fold
fold weaker affinity (vs WT:WT) [7]: 700 fold

B2: G-CSFE design 307, purified, tag cleaved (ligand)
chain: TPLGPASSLPQEFLLDCLKQVRKIQGDGAALQEKLCATYKLCHPERLVLLGHSLGIPWAPLSSCPSQALQLAGCLSQLHSGLFLYQGLLQALEGISPELGPTLDTLQLDVADFATTIWQQMEELGMAPALQPTQGAMPAFASAFQRRAGGVLVASHLQSFLEVSYRVLRHLAQAAAENLYFQ
notes: also called 307 G-CSF
binding result [8]: no binding
KD fold change (vs WT:WT) [9]: 0.6 fold

B3
Kd [10]: 1.8 to 2.5 nM
